How the values were obtained:
IL-1RAP = assay: Hybridoma screening by FACS against IL-1RAP-positive and -negative cell lines; format: binding, human; conditions: compared among the 5 subclones
Text: Briefly, BALB/c mice (5 weeks, Charles River) were immunized either by foot pad (n=3) or intraperitoneally (n=5) with a recombinant fusion protein consisting of the extra cellular part of IL-1RAP (NM_002182.2, NCBI) and the Fc-part of human IgG1 (R&D Systems, Lille, France). Lymph nodes or spleens cells and blood samples were harvested and cells were fused with the mouse myeloma cell line, then screened by FACS analysis Becton Dickinson)(, against IL-1RAP-positive (KU812) and -negative (Raji, KG1) cell lines.
Screening of hybridoma allowed to select 5 monoclonal antibodies subclones that discriminate IL-1RAP positive (KU812 or KG-1 respectively AML or Phi^+p^210 CML) from negative cell lines (Tom-1, NALM-20, Jurkat or Raji, respectively Phi+^p190 B-ALL, Phi^−B-ALL, T-ALL or Burkitt's lymphoma).
Molecular characterization was performed by Sanger sequencing of cloned PCR products amplification obtained with degenerated primers specific of the FR1 and constant regions of the heavy and light chains according to the protocol of Wang. Z. et al (J. Immunol. Methods, 2000; 233, pages 167-77). […] The monoclonal antibody subclone (#E3C3) was chosen, since it gave the highest relative fluorescence intensity (RFI) by cytometry.

[1] = target: T1, IL-1RAP recombinant protein (Homo sapiens, UniProt Q9NPH3); assay: ELISA detection of recombinant IL-1RAP protein; format: binding
T1 construct: recombinant fusion protein consisting of the extra cellular part of IL-1RAP (NM_002182.2, NCBI) and the Fc-part of human IgG1; purchased R&D Systems
T1 sequence (Q9NPH3 21-367 limits assumed): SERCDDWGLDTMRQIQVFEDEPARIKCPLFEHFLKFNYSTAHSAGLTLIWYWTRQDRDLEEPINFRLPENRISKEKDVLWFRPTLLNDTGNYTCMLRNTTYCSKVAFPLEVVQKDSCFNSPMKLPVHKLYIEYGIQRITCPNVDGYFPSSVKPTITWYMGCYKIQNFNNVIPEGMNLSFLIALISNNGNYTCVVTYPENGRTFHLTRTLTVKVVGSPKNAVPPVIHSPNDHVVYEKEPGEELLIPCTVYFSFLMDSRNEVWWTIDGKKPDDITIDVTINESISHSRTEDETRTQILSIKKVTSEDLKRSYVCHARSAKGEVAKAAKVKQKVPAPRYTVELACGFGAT
Text: Anti-human Fc antibody was coated on a bottom of a plastic ELISA plate.

AML blasts = assay: Flow cytometry on primary cells from AML patients; format: cell-based, human; conditions: all subtypes, n=30
Text: FIG. 3: Flow cytometry-gating strategy on AML primary samples of patients. RFI is provided for blasts and monocytes subpopulations (Left). Percentage of IL-1RAP+ within AML blasts and monocytes, CD123+ and IL-1RAP+/CD123+ cells within AML Blasts in a cohort of routine AML (all subtypes) patients (n=30) (Right, up). RFI is also provided (Right, bottom).
For primary samples of bone marrow or peripheral bloods of AML patients, the murine IL-1RAP mAb (#E3C3) was included in a panel allowing to detect CD45, CD34, CD38, CD33, CD123, and CD14 (for monocytes). Stained cells were collected by a CANTO II cytometer (BD Biosciences, Le Pont-de-Claix, France) and analyzed by DIVA 6.1 software (BD Biosciences, Le Pont-de-Claix, France).

IL-1RAP, sequence (Q9NPH3 21-570): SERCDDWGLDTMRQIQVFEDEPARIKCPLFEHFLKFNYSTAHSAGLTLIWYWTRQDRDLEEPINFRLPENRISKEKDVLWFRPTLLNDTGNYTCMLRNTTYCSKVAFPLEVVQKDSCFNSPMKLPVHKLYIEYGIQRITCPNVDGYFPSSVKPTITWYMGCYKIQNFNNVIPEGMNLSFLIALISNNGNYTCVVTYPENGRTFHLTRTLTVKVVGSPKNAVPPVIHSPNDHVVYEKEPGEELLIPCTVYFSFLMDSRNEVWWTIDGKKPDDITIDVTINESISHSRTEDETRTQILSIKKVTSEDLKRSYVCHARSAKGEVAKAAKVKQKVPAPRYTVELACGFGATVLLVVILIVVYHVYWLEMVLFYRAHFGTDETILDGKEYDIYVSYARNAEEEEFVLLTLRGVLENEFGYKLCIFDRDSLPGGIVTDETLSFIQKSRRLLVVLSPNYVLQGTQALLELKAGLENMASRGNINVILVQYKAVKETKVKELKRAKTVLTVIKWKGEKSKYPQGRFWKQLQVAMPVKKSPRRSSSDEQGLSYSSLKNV

B1: #A3C3: mouse anti-hIL-1RAP monoclonal antibody generated by standard hybridoma technique; VH SEQ ID No 2, VL SEQ ID No 4 (antibody, V domains shown)
VH: MGWSCIILFLVATATGVNSQVQLQQPGAELMMPGASVKVSCEASGYTFTDSWMHWVKQRPGQGLEWIGAIDPSDSYTTYNQKFTGKATLSVDESSNTAYMQLSSLTSEDSAVYYCARYYSGSNYISPFPYWGQGTLVTVSA
VL: MESQIQVFVFVFLWLSGVDGDIVMTQSHKFMSTSVGDRVTITCKASLDVSTAVAWYQQKPGQSPKLLIYSASYRYTGVPDRFTGSGSGTDFTFTISSVQAEDLAVYYCQQHYSPPFTFGSGTNLEIK
modifications: Amino acid sequence of chain H (VH) of murine scFv anti-IL-1RAP; Amino acid sequence of chain K (VL) of murine scFv anti-IL-1RAP
**Q.** What does the source list for B1?
**A.** relative fluorescence intensity (RFI) by cytometry (IL-1RAP): highest; recognition of IL-1RAP recombinant protein [1]: recognize the IL-1RAP recombinant protein; presence of IL-1RAP on AML blasts, percentage (AML blasts): 84.27±17.4%

— patent publication US20220235138A1, “CAR-T CELLS TARGETING IL-1RAP AND THEIR USE IN ACUTE MYELOID LEUKEMIA (AML)” (ETABLISSEMENT FRANCAIS DU SANG, priority 2019, published 2022)
